Values quoted from earlier work in patent publication US7144982B2, “Polypeptides with therapeutic activity and methods of use” (University of Minnesota, priority 2000, dated 2006).

Conditions: literature value; read-out: LPS binding activity (IC50); cited from earlier work

B1: B/PI: 55 kD protein B/PI, bactericidal/permeability increasing protein (protein, UniProt P17213 32-487, looked up)
Bactericidal …: VNPGVVVRISQKGLDYASQQGTAALQKELKRIKIPDYSDSFKIKHLGKGHYSFYSMDIREFQLPSSQISMVPNVGLKFSISNANIKISGKWKAQKRFLKMSGNFDLSIEGMSISADLKLGSNPTSGKPTITCSSCSSHINSVHVHISKSKVGWLIQLFHKKIESALRNKMNSQVCEKVTNSVSSELQPYFQTLPVMTKIDSVAGINYGLVAPPATTAETLDVQMKGEFYSENHHNPPPFAPPVMEFPAAHDRMVYLGLSDYFFNTAGLVYQEAGVLKMTLRDDMIPKESKFRLTTKFFGTFLPEVAKKFPNMKIQIHVSASTPPHLSVQPTGLTFYPAVDVQAFAVLPNSSLASLFLIGMHTTGSMEVSAESNRLVGELKLDRLLLELKHSNIGPFPVELLQDIMNYIVPILVLPRVNEKLQKGFPLPTPARVQLYNVVLQPHQNFLLFGADVVYK
  IC50: 20 nM
